Source: patent publication US20240131162A1 (MacroGenics, published 2024)

T1: CD32B (FcγRII-B) (UniProt P31994 43-217, limits assumed)
T1 sequence (looked up): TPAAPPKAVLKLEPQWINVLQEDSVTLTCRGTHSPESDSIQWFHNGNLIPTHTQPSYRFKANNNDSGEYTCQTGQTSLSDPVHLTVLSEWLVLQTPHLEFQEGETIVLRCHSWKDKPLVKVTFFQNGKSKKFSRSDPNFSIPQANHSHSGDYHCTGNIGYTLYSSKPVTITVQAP

T2: CD32A^H (UniProt P12318 34-217, limits assumed)
T2 construct: also called FcγRIIA
T2 sequence (looked up): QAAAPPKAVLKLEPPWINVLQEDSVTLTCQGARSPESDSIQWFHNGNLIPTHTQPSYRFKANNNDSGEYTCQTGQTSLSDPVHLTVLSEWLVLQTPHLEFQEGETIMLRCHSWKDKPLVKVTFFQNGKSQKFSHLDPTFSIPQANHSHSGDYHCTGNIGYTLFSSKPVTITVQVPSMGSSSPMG


Assays:
CD32B (FcγRII-B) [1] = biological target: T1, CD32B (FcγRII-B); experiment: SPR (BIAcore), koff compared with wild-type Fc
CD16A V158 [2] = biological target: T3, CD16A V158 (human, UniProt P08637 17-208, limits assumed); experiment: SPR (BIAcore), koff compared with wild-type Fc
T3 construct: construct not described
T3 sequence (P08637 17-208 F176V limits assumed): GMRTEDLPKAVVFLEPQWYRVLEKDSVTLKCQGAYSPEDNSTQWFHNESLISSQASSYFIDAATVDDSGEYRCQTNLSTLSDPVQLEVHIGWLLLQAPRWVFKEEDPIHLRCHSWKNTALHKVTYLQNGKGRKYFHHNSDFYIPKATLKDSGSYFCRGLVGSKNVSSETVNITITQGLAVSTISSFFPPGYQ

CD32A^H = biological target: T2, CD32A^H; experiment: SPR (BIAcore), koff compared with wild-type Fc
CD16A F158 = biological target: T4, CD16A F158 (human, UniProt P08637 17-208, limits assumed); experiment: method not stated at Table 3
T4 construct: construct not described
T4 sequence (P08637 17-208 limits assumed): as the sequence (P08637 17-208 F176V limits assumed) above, with V160F counted along it

CD32B (FcγRII-B) [3] = biological target: T1, CD32B (FcγRII-B); experiment: method not stated at Table 3
CD16A V158 [4] = biological target: T3, CD16A V158; experiment: method not stated at Table 3

Binder	WT koff/mutant koff (CD32B (FcγRII-B) [1]) [ratio]	WT koff/mutant koff (CD16A V158 [2]) [ratio]	WT koff/mutant koff (CD32A^H) [ratio]	binding relative to wild-type Fc (CD16A F158) [fold]	binding relative to wild-type Fc (CD32B (FcγRII-B) [3]) [fold]	binding relative to wild-type Fc (CD16A V158 [4]) [fold]
Fc mutant 14: F243L R292P P396L (other, UniProt P01857-1 104-330, looked up, domain: Fc) DKTHTCPPCPAPELLGGPSVFLLPPKPKDTLMISRTPEVTCVVVDVSHEDPEVKFNWYVDGVEVHNAKTKPPEEQYNSTYRVVSVLTVLHQDWLNGKEYKCKVSNKALPAPIEKTISKAKGQPREPQVYTLPPSRDELTKNQVSLTCLVKGFYPSDIAVEWESNGQPENNYKTTPLVLDSDGSFFLYSKLTVDKSRWQQGNVFSCSVMHEALHNHYTQKSLSLSPGK	0.4	6.3	1.4			
Fc variant F243L P247L N421K (other, UniProt P01857-1 104-330, looked up, domain: Fc) DKTHTCPPCPAPELLGGPSVFLLPPKLKDTLMISRTPEVTCVVVDVSHEDPEVKFNWYVDGVEVHNAKTKPREEQYNSTYRVVSVLTVLHQDWLNGKEYKCKVSNKALPAPIEKTISKAKGQPREPQVYTLPPSRDELTKNQVSLTCLVKGFYPSDIAVEWESNGQPENNYKTTPPVLDSDGSFFLYSKLTVDKSRWQQGKVFSCSVMHEALHNHYTQKSLSLSPGK				1.71	0.17	1.89
Fc variant D270E P396L Q419H (other, UniProt P01857-1 104-330, looked up, domain: Fc) DKTHTCPPCPAPELLGGPSVFLFPPKPKDTLMISRTPEVTCVVVDVSHEEPEVKFNWYVDGVEVHNAKTKPREEQYNSTYRVVSVLTVLHQDWLNGKEYKCKVSNKALPAPIEKTISKAKGQPREPQVYTLPPSRDELTKNQVSLTCLVKGFYPSDIAVEWESNGQPENNYKTTPLVLDSDGSFFLYSKLTVDKSRWQHGNVFSCSVMHEALHNHYTQKSLSLSPGK					0.68	1.64
Fc variant F243L P247L D270E N421K (other, UniProt P01857-1 104-330, looked up, domain: Fc) DKTHTCPPCPAPELLGGPSVFLLPPKLKDTLMISRTPEVTCVVVDVSHEEPEVKFNWYVDGVEVHNAKTKPREEQYNSTYRVVSVLTVLHQDWLNGKEYKCKVSNKALPAPIEKTISKAKGQPREPQVYTLPPSRDELTKNQVSLTCLVKGFYPSDIAVEWESNGQPENNYKTTPPVLDSDGSFFLYSKLTVDKSRWQQGKVFSCSVMHEALHNHYTQKSLSLSPGK				3.45	0.32	2.3
Fc variant R255L D270E P396L (other, UniProt P01857-1 104-330, looked up, domain: Fc) DKTHTCPPCPAPELLGGPSVFLFPPKPKDTLMISLTPEVTCVVVDVSHEEPEVKFNWYVDGVEVHNAKTKPREEQYNSTYRVVSVLTVLHQDWLNGKEYKCKVSNKALPAPIEKTISKAKGQPREPQVYTLPPSRDELTKNQVSLTCLVKGFYPSDIAVEWESNGQPENNYKTTPLVLDSDGSFFLYSKLTVDKSRWQQGNVFSCSVMHEALHNHYTQKSLSLSPGK				1.65	0.87	1.34
Fc variant F243L D270E P396L Q419H (other, UniProt P01857-1 104-330, looked up, domain: Fc) DKTHTCPPCPAPELLGGPSVFLLPPKPKDTLMISRTPEVTCVVVDVSHEEPEVKFNWYVDGVEVHNAKTKPREEQYNSTYRVVSVLTVLHQDWLNGKEYKCKVSNKALPAPIEKTISKAKGQPREPQVYTLPPSRDELTKNQVSLTCLVKGFYPSDIAVEWESNGQPENNYKTTPLVLDSDGSFFLYSKLTVDKSRWQHGNVFSCSVMHEALHNHYTQKSLSLSPGK				1.15	0.26	1.46
Fc variant D270E K392T P396L (other, UniProt P01857-1 104-330, looked up, domain: Fc) DKTHTCPPCPAPELLGGPSVFLFPPKPKDTLMISRTPEVTCVVVDVSHEEPEVKFNWYVDGVEVHNAKTKPREEQYNSTYRVVSVLTVLHQDWLNGKEYKCKVSNKALPAPIEKTISKAKGQPREPQVYTLPPSRDELTKNQVSLTCLVKGFYPSDIAVEWESNGQPENNYTTTPLVLDSDGSFFLYSKLTVDKSRWQQGNVFSCSVMHEALHNHYTQKSLSLSPGK				2.28	0.79	1.81
Fc variant P247L D270E N421K (other, UniProt P01857-1 104-330, looked up, domain: Fc) DKTHTCPPCPAPELLGGPSVFLFPPKLKDTLMISRTPEVTCVVVDVSHEEPEVKFNWYVDGVEVHNAKTKPREEQYNSTYRVVSVLTVLHQDWLNGKEYKCKVSNKALPAPIEKTISKAKGQPREPQVYTLPPSRDELTKNQVSLTCLVKGFYPSDIAVEWESNGQPENNYKTTPPVLDSDGSFFLYSKLTVDKSRWQQGKVFSCSVMHEALHNHYTQKSLSLSPGK				2.46	0.58	1.89
Fc variant F243L D270E K392T P396L (other, UniProt P01857-1 104-330, looked up, domain: Fc) DKTHTCPPCPAPELLGGPSVFLLPPKPKDTLMISRTPEVTCVVVDVSHEEPEVKFNWYVDGVEVHNAKTKPREEQYNSTYRVVSVLTVLHQDWLNGKEYKCKVSNKALPAPIEKTISKAKGQPREPQVYTLPPSRDELTKNQVSLTCLVKGFYPSDIAVEWESNGQPENNYTTTPLVLDSDGSFFLYSKLTVDKSRWQQGNVFSCSVMHEALHNHYTQKSLSLSPGK				2.44	0.44	3.16
Fc variant R255L D270E Y300L P396L (other, UniProt P01857-1 104-330, looked up, domain: Fc) DKTHTCPPCPAPELLGGPSVFLFPPKPKDTLMISLTPEVTCVVVDVSHEEPEVKFNWYVDGVEVHNAKTKPREEQYNSTLRVVSVLTVLHQDWLNGKEYKCKVSNKALPAPIEKTISKAKGQPREPQVYTLPPSRDELTKNQVSLTCLVKGFYPSDIAVEWESNGQPENNYKTTPLVLDSDGSFFLYSKLTVDKSRWQQGNVFSCSVMHEALHNHYTQKSLSLSPGK				1.74	0.87	1.52
Fc variant D270E G316D R416G (other, UniProt P01857-1 104-330, looked up, domain: Fc) DKTHTCPPCPAPELLGGPSVFLFPPKPKDTLMISRTPEVTCVVVDVSHEEPEVKFNWYVDGVEVHNAKTKPREEQYNSTYRVVSVLTVLHQDWLNDKEYKCKVSNKALPAPIEKTISKAKGQPREPQVYTLPPSRDELTKNQVSLTCLVKGFYPSDIAVEWESNGQPENNYKTTPPVLDSDGSFFLYSKLTVDKSGWQQGNVFSCSVMHEALHNHYTQKSLSLSPGK				2.49	0.78	2.18
Fc variant F243I R292P Y300L V305I P396L (other, UniProt P01857-1 104-330, looked up, domain: Fc; 'F243I' as printed) DKTHTCPPCPAPELLGGPSVFLIPPKPKDTLMISRTPEVTCVVVDVSHEDPEVKFNWYVDGVEVHNAKTKPPEEQYNSTLRVVSILTVLHQDWLNGKEYKCKVSNKALPAPIEKTISKAKGQPREPQVYTLPPSRDELTKNQVSLTCLVKGFYPSDIAVEWESNGQPENNYKTTPLVLDSDGSFFLYSKLTVDKSRWQQGNVFSCSVMHEALHNHYTQKSLSLSPGK				3.12	1.05	
Fc variant R255L D270E R292G P396L (other, UniProt P01857-1 104-330, looked up, domain: Fc) DKTHTCPPCPAPELLGGPSVFLFPPKPKDTLMISLTPEVTCVVVDVSHEEPEVKFNWYVDGVEVHNAKTKPGEEQYNSTYRVVSVLTVLHQDWLNGKEYKCKVSNKALPAPIEKTISKAKGQPREPQVYTLPPSRDELTKNQVSLTCLVKGFYPSDIAVEWESNGQPENNYKTTPLVLDSDGSFFLYSKLTVDKSRWQQGNVFSCSVMHEALHNHYTQKSLSLSPGK					0.65	
Fc variant D270E P396L G316D R416G (other, UniProt P01857-1 104-330, looked up, domain: Fc; also called D270E G316D P396L R416G) DKTHTCPPCPAPELLGGPSVFLFPPKPKDTLMISRTPEVTCVVVDVSHEEPEVKFNWYVDGVEVHNAKTKPREEQYNSTYRVVSVLTVLHQDWLNDKEYKCKVSNKALPAPIEKTISKAKGQPREPQVYTLPPSRDELTKNQVSLTCLVKGFYPSDIAVEWESNGQPENNYKTTPLVLDSDGSFFLYSKLTVDKSGWQQGNVFSCSVMHEALHNHYTQKSLSLSPGK				0.94	1.07	1.22
Fc variant F243L D270E G316D R416G (other, UniProt P01857-1 104-330, looked up, domain: Fc) DKTHTCPPCPAPELLGGPSVFLLPPKPKDTLMISRTPEVTCVVVDVSHEEPEVKFNWYVDGVEVHNAKTKPREEQYNSTYRVVSVLTVLHQDWLNDKEYKCKVSNKALPAPIEKTISKAKGQPREPQVYTLPPSRDELTKNQVSLTCLVKGFYPSDIAVEWESNGQPENNYKTTPPVLDSDGSFFLYSKLTVDKSGWQQGNVFSCSVMHEALHNHYTQKSLSLSPGK				1.34	0.2	1.5
Fc variant F243L R255L D270E P396L (other, UniProt P01857-1 104-330, looked up, domain: Fc) DKTHTCPPCPAPELLGGPSVFLLPPKPKDTLMISLTPEVTCVVVDVSHEEPEVKFNWYVDGVEVHNAKTKPREEQYNSTYRVVSVLTVLHQDWLNGKEYKCKVSNKALPAPIEKTISKAKGQPREPQVYTLPPSRDELTKNQVSLTCLVKGFYPSDIAVEWESNGQPENNYKTTPLVLDSDGSFFLYSKLTVDKSRWQQGNVFSCSVMHEALHNHYTQKSLSLSPGK				1.64	0.38	1.75
